From patent publication US20230235029A1 (INTEGRATED BIOTHERAPEUTICS, published 2023)
Positions count from the first letter of the chain named.

Assays:
[1] = molecular target: Marburg virus Angola GP on rVSV pseudotype (Marburg virus, Angola strain) (UniProt Q1PD50)
[2] = molecular target: Marburg virus Musoke GP on rVSV pseudotype (VSV-MARV Musoke GP) (Marburg virus, Musoke strain) (UniProt P35253)
[3] = molecular target: RAVV GP on rVSV pseudotype (VSV-MARV RAVV GP) (Ravn virus) (UniProt Q1PDC7)
[4] = molecular target: T1, RAVV GP on rVSV pseudotype (VSV-MARV RAVV GP) (Ravn virus, UniProt Q1PDC7 19-681); assay: cell-based or functional assay
T1 sequence: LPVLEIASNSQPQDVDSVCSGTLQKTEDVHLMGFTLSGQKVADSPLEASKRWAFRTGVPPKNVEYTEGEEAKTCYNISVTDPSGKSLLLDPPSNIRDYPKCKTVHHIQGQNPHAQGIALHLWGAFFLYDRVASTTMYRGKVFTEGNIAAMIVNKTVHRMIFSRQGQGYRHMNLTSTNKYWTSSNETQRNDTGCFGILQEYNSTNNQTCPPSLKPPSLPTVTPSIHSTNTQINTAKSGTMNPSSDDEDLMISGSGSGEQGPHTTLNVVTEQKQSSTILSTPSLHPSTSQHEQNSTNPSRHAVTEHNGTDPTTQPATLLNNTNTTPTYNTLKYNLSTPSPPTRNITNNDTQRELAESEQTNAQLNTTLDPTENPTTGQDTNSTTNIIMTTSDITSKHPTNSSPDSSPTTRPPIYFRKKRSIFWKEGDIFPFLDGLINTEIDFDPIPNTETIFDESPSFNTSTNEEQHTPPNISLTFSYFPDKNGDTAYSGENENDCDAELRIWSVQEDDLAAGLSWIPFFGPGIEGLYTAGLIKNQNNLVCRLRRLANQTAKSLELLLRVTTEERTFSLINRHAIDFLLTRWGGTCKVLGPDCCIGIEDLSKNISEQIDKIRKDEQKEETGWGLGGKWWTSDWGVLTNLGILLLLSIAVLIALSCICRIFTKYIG

[5] = molecular target: T2, Marburg virus Musoke GP on rVSV pseudotype (VSV-MARV Musoke GP) (Marburg virus, Musoke strain, UniProt P35253 19-681); assay: cell-based or functional assay
T2 sequence: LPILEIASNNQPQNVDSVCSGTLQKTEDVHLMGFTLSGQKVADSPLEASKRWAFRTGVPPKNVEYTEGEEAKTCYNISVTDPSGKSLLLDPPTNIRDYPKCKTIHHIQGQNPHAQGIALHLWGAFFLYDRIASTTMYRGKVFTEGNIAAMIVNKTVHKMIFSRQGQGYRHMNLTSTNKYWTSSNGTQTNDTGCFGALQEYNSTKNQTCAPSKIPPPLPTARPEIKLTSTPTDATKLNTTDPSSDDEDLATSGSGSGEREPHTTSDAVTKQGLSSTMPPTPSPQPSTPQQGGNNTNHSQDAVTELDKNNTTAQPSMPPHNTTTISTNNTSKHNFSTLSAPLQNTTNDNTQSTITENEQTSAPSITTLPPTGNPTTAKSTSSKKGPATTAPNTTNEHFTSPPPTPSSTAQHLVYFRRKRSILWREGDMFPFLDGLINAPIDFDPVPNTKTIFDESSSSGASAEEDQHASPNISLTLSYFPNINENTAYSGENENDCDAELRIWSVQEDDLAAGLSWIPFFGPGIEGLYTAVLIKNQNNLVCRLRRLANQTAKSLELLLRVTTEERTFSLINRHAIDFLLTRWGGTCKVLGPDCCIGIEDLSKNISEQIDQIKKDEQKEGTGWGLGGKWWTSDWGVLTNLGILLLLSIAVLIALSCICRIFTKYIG

[6] = molecular target: T3, Marburg virus Angola GP on rVSV pseudotype (Marburg virus, Angola strain, UniProt Q1PD50 19-681); assay: cell-based or functional assay
T3 sequence: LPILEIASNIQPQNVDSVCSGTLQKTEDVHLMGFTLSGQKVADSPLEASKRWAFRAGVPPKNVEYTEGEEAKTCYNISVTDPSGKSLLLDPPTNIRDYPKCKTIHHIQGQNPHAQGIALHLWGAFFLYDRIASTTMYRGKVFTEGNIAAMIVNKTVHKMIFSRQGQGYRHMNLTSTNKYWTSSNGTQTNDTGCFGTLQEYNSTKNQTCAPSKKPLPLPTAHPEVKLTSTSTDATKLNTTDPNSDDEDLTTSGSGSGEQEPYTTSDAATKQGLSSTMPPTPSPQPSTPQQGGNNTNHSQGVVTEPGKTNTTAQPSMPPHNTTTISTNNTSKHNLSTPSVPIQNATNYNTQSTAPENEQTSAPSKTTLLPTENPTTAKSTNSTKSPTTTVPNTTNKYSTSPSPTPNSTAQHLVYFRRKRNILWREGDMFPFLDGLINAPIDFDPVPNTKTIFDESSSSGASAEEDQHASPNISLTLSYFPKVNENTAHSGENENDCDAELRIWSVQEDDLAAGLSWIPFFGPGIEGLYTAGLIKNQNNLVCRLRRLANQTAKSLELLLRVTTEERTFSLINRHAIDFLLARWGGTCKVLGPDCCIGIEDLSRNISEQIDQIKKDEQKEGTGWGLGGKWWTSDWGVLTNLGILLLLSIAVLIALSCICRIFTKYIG

[7] = molecular target: T2, Marburg virus Musoke GP on rVSV …; assay: cell-based or functional assay; remark: listed apart in the source

MR191 (antibody)
NT50 [1]: 3.81 µg/mL
NT50 [2]: 2.77 µg/mL
NT50 [3]: 7 µg/mL

B1: R18 (antibody, V domains shown)
VH: QVQLQESGPGLVKASETLSLTCAVSGASISSYWWNWIRLSPGKGLEWIGEIYGYSGSTSYKSSLKSRVSISRDASKNQFSLKLTSVTAADTAVYYCARDPLNHDAFDFWGRGLRVTVSS
VL: QSALTQPPSVSGSPGQSVTISCAGTSSDIGGYTYVSWYQQHPGKAPKLMIYDVNERPSGVSDRFSGSISGNTASLTISGLQAEDEADYYCSSYAGSKTVLFGGGTRLSVL
NT50 [4]: 0.18 µg/mL
NT50 [5]: 0.09 µg/mL
NT50 [6]: 0.04 µg/mL

B2: R83 (antibody, V domains shown)
VH: QVQLQESGPGLVKPSETLSLTCAVSGASISDYWWNWIRQPPGKGLEWIGEIYGYSGSTYYNPSLKSRVTISKDASKKQLSLRLTSVTAADTAIYYCARDPLNQDAFDFWGLGLRVTVSS
VL: QSALTQPPSVSGSPGQSVTISCTGTSSDIGGYTYISWYQQYPGKAPKLMIYDVSKRPSGVSDRFSGSKSGNTASLTVSGLQAEDEADYYCSSYGGRKTLLFGGGTRLTVL
NT50 [4]: 0.17 µg/mL
NT50 [5]: 0.05 µg/mL
NT50 [6]: 0.03 µg/mL

B3: R217 (antibody, V domains shown)
VH: QVQLQESGPGLVKPSETLSLTCAVSGASISSNWWNWIRQPPGRGLEWLGEIYGYSGSTSYNPYLKSRVTISKDASRNQISLKLNAVTAADTAVYYCARDPLNQDAFDFWGQGLRVTVSS
VL: B1 VL with A23T, T33D, Q40H, S58A, I68K, Y89F, S96R, V99L, S108T
EC50 (read off the curve) [7]: ~0.3 µg/mL

B4: R80 (antibody, V domains shown)
VH: EVQLVESGGGLAKPGGSLRLSCAASGFTFNDYWLFWVRQAPGRGLEWISTINRPGSSTFYADSVKGRFTISRENANNALYLQMDSLRPEDTAVYYCARDQGRTVGYLDYWGQGVLVTVSS
VL: QSALTQPRSVSGSPGQSVTISCTGTSSDIGSYSYVSWYQQHPGTAPKLIIYDDSERPSGVSDRFSGSKSGNTASLTISGLQAEDEADYYCSSYAGSNTWVFGGGTRLTVL
NT50 [4]: 0.3 µg/mL
NT50 [5]: 0.21 µg/mL
NT50 [6]: 0.26 µg/mL
